Results reported in paper PMC7573392, “Monitoring Allosteric Interactions with CXCR4 Using NanoBiT Conjugated Nanobodies” (Cell Chemical Biology, 2020).
Marks after values point to notes of the source that are not given here.

Experiments:
LgBiT-CXCR4 [1] = biological target: T1, LgBiT-CXCR4 (Homo sapiens, UniProt P61073); assay: NanoBiT saturation binding (complemented luminescence) in HEK293 cells stably expressing LgBiT-CXCR4
T1 construct: GSSG linker and TEV recognition site (EDLYFQS), between LgBiT and CXCR4 (N); expressed in transfected cells; whole cells in A1-A4, isolated membranes in A9/A10
Protocol: Saturation binding with VUN400-HiBiT was performed on HEK 293 cells stably expressing the LgBiT-CXCR4 receptor. Cells were plated at 30,000 cells/well in white 96-well plates previously coated with poly-D-lysine (10 μg/ml in PBS) in 100 μl complete media (DMEM with 10% FCS). After 24 hours, the media was removed and replaced with 100 μl HBSS containing VUN400-HiBiT within the range of 4-500 nM. Where used, CXCL12, AMD3100 or IT1t were also added at this point. The plate was incubated for two hours at 37°C. Furimazine (1:400 final concentration) was added to each well and the plate was incubated for a further 15 minutes at 37°C. Luminescence was measured using the PHERAstar FS plate reader.
Saturation binding curves of VUN400-HiBiT were fitted using the following equation: Specificbinding=Bmax×[B]/[B]+KD where Bmax is the maximal specific binding, [B] is the concentration of VUN400-HiBiT, and KD is the equilibrium dissociation constant (nM).

LgBiT-CXCR4 [2] = biological target: T1, LgBiT-CXCR4; assay: NanoBiT nanobody displacement binding assay, whole HEK293 cells expressing LgBiT-CXCR4
Protocol: (§1) Full nanobody displacement assays were performed in HEK293 cells stably expressing either the LgBiT-CXCR4 or SNAP-CXCR4 constructs. Cells (30,000 per well) were plated in white 96-well poly-D-lysine coated plates as described above. After 24 hours, media was removed and replaced with 100 μl HBSS. Increasing concentrations of displacing ligands were added to the cells. […] The cells were incubated at 37°C for 2 and a half hours in total. […] Furimazine (1:400 final concentration) was added to each well and the plate was incubated for a further 15 minutes at 37°C. Luminescence was measured using the PHERAstar FS plate reader.

[3] = test system: T2, endogenous, untagged CXCR4; assay: Nanobody displacement assay in Jurkat T cells (endogenous CXCR4); format: binding, human; settings: 100 nM VUN400-HiBiT with competing ligand 2 h, washed, exogenous LgBiT added, p < 0.05
T2 construct: these cells express high levels of CXCR4 endogenously; host or cells: Jurkat T cells (clone E6-1)
Protocol: Nanobody displacement assays in T-cells were performed by seeding 100,000 Jurkat cells per well into V-bottom 96-well plates in 100μl warm HBSS. Cells were treated with 100 nM VUN400-HiBiT and competing ligands simultaneously and incubated for 2 hours at 37°C. The cells were pelleted by centrifugation at 300g for 5 minutes and the supernatant removed and replaced with 200 μl fresh HBSS. Cells were resuspended via shaking at 1000 r.p.m on an orbital plate shaker for 2 minutes. This wash step was repeated two more times to remove unbound VUN400-HiBiT. The cells were treated with 20 nM exogenous LgBiT and furimazine (1:400 final concentration) and transferred to white 96-well plates and luminescence read using a PHERAstar FS plate reader.

SNAP-CXCR4 = SNAP-CXCR4 (Homo sapiens, UniProt P61073); assay: NanoBiT nanobody displacement binding assay, whole HEK293 cells expressing SNAP-CXCR4 (exogenous LgBiT added after washing); parameters: expressed in transfected cells; host or cells: HEK293G cells stably expressing SNAP-CXCR4 (gift of Dr. J. Goulding, University of Nottingham)
Chain of SNAP-CXCR4 (P61073 whole entry): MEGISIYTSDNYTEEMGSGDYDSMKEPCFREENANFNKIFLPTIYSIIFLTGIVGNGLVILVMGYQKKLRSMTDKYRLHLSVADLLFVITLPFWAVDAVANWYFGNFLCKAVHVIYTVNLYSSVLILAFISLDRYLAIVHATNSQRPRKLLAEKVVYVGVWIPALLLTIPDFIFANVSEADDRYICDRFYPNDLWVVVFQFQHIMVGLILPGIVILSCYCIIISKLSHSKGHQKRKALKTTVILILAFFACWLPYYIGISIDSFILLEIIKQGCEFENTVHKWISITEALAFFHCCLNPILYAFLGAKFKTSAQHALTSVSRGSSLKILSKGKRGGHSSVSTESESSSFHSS
Protocol: as §1

LgBiT-CXCR4 [4] = biological target: T1, LgBiT-CXCR4; assay: NanoBiT association kinetic measurements (complemented luminescence) in HEK293 cells stably expressing LgBiT-CXCR4; format: binding; settings: KD = koff/kon at LgBiT-CXCR4
Protocol: Cells (30,000 per well) were plated in white 96-well poly-D-lysine coated plates (10 μg/ml in PBS) as described above. After 24 hours, media was removed and replaced with 50 μl HBSS containing furimazine (1:400 final concentration) and incubated at 37°C for 10 minutes and basal luminescence was measured. […] The resulting luminescence was measured over 60 minutes at 37°C. Luminescence was measured using the PHERAstar FS plate reader.
Nanobody binding association kinetic data were fitted to the following mono-exponential association function: Y=Ymax(1−e^−kobs.t) where Ymax is the specific binding at infinite time, t is the time of incubation, and kobs is the rate constant for the observed rate of association.
kon and koff values were determined by simultaneously fitting nanobody binding association kinetic curves obtained at different nanobody concentrations (L) to the equation above with the relationship between kobs and the two kinetic binding rate constants kon and koff given by: kon=kobs−koff/L
Kinetically determined nanobody KD values were determined with the following equation: KD=koff/kon

[5] = biological target: T3, LgBiT-tagged human CXCR4 receptor ( | human, UniProt P61073 2-352, CXCR4 portion only (initiator Met removed (so in the source)); this part carries VUN400, CXCL12, AMD3100 and IT1t binding. Left out: the 5-HT3A signal sequence (presumed cleaved), the N-terminal LgBiT report); assay: split reporter (BiFC, NanoBiT); association kinetics; increasing concentrations of HiBiT added to HEK293 cells stably expressing LgBiT-CXCR4 in HBSS with furimazine; luminescence over 60 minutes at 37°C; global fit of kon and koff, KD = koff/kon; settings: one partner purified
T3 chain: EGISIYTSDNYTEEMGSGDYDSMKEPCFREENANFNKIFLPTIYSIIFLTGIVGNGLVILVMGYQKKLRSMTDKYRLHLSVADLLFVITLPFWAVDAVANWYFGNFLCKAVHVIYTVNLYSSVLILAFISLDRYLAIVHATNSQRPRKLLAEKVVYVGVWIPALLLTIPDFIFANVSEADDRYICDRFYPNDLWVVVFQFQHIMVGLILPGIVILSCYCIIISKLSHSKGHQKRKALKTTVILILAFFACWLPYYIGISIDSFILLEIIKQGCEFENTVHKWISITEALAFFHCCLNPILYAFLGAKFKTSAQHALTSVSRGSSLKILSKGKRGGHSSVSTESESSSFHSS

[6] = 20 nM VUN400-HiBiT, (a) pre-incubation with VUN400-HiBiT
[7] = 20 nM VUN400-HiBiT, (b) simultaneous addition
[8] = 20 nM VUN400-HiBiT, (b) simultaneous addition, 2 h 37°C
[9] = 20 nM VUN400-HiBiT, (c) pre-incubation with ligands
[10] = (c) pre-incubation with ligands 2 h 37°C, then 20 nM VUN400-HiBiT 30 min
[11] = inhibition of 20 nM VUN400-HiBiT binding, (a) pre-incubation with VUN400-HiBiT 30 min, then ligand 2 h 37°C

## CXCL12: chemokine ligand, endogenous orthosteric agonist of CXCR4 (PeproTech)
LgBiT-CXCR4 [1]; fixed concentration: 100 nM CXCL12, 10 μM AMD3100 or 10 μM IT1t (Figure 3E)
  prevention of VUN400-HiBiT binding to LgBiT-CXCR4: prevented
LgBiT-CXCR4 [2]; [6]
  Maximum Inhibition (% 10 μM AMD3100): 98.2 ± 0.2 % 10 μM AMD3100
LgBiT-CXCR4 [2]; [7]
  Maximum Inhibition (% 10 μM AMD3100): 98.8 ± 0.3 % 10 μM AMD3100
LgBiT-CXCR4 [2]; [8]
  pIC50 (Mean ± SEM): 8.74 ± 0.13
LgBiT-CXCR4 [2]; [9]
  Maximum Inhibition (% 10 μM AMD3100): 111.5 ± 3.1 ^c % 10 μM AMD3100
LgBiT-CXCR4 [2]; [10]
  pIC50 (Mean ± SEM): 9.03 ± 0.02
LgBiT-CXCR4 [2]; [11]
  pIC50 (Mean ± SEM): 8.82 ± 0.12
[3]
  displacement of VUN400-HiBiT from endogenous CXCR4: displaced
SNAP-CXCR4; [6]
  Maximum Inhibition (% 10 μM AMD3100): 93.3 ± 8.7 % 10 μM AMD3100
SNAP-CXCR4; [7]
  Maximum Inhibition (% 10 μM AMD3100): 92.8 ± 6.7 % 10 μM AMD3100
SNAP-CXCR4; [8]
  pIC50 (Mean ± SEM): 8.05 ± 0.21 ^a
SNAP-CXCR4; [9]
  Maximum Inhibition (% 10 μM AMD3100): 67.7 ± 11.6 ^c % 10 μM AMD3100
SNAP-CXCR4; [10]
  pIC50 (Mean ± SEM): 8.05 ± 0.41
SNAP-CXCR4; [11]
  pIC50 (Mean ± SEM): 8.14 ± 0.28 ^a

## HiBiT: purified HiBiT-HaloTag fusion protein, circa 34 kDa (Promega)
LgBiT-CXCR4 [4]
  pKD (determined from kinetic rate constants): 6.4
LgBiT-CXCR4 [1]; increasing concentrations added to HEK LgBiT-CXCR4 cells
  saturation binding (in words): linear, indicative of low affinity

B1: purified HiBiT-HaloTag fusion protein (peptide)
chain: VSGWRLFKKIS
notes: Fusion protein of circa 34 kDa; also called HiBiT-HaloTag control protein; source: bought: Promega (Cat# N3010)
[5]
  koff: 0.00367 s⁻¹
  kon: 10000 M⁻¹ s⁻¹
  pKD: 6.43 ± 0.13
